Assay results published in article PMC9364112, “A natural fusion of flavodiiron, rubredoxin, and rubredoxin oxidoreductase domains is a self-sufficient water-forming oxidase of Trichomonas vaginalis” (The Journal of Biological Chemistry, 2022).

How the values were obtained:
[1] = biological target: T1, TvFDPF3 (holoTvFDPF3) (Trichomonas vaginalis, UniProt A2E972); test: anaerobic UV-visible titration, charge-transfer band at […] nm; format: binding
T1 construct: gene TVAG_121610; full length, 871 residues, C-terminal His6 (pET30a, E. coli BL21 Star DE3), ~100 kDa on SDS-PAGE; FDP-core head-to-tail dimer; holo preparation with full FAD/FMN
T1 sequence (A2E972 1-871): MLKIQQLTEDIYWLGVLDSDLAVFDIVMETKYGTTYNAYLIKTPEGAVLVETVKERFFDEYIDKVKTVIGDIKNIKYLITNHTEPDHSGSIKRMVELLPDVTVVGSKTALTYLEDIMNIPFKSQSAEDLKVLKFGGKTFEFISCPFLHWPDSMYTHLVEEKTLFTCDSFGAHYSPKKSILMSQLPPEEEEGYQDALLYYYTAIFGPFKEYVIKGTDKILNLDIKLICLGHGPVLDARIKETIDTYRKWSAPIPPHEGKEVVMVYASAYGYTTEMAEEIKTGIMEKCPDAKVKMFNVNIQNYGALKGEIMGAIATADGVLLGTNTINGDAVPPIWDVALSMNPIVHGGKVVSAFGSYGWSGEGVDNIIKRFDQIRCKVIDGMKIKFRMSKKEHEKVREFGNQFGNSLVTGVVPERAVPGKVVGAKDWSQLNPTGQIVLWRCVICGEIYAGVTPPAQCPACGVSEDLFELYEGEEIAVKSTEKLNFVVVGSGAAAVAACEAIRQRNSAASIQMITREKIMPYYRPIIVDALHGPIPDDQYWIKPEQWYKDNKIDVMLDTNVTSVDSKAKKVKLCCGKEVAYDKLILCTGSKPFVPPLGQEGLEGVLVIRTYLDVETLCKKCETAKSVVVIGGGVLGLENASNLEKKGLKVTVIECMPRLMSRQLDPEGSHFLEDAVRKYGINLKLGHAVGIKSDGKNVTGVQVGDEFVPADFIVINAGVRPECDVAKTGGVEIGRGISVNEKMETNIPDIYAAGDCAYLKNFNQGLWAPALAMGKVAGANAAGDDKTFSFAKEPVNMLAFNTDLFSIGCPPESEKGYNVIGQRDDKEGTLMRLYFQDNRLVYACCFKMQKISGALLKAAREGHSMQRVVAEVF

[2] = biological target: T1, TvFDPF3 (holoTvFDPF3); test: LC-MS quantification of bound flavin; format: binding; conditions: co-purified cofactor, FDP domain
Source text: LC-MS quantification of bound flavin on TvFDPF3 (holoTvFDPF3)

[3] = biological target: class F flavodiiron protein 3 from Trichomonas vaginalis (TvFDPF3) (Trichomonas vaginalis); test: cryo-EM structure; single-particle cryo-EM of holoTvFDPF3 at 0.8 mg/ml in buffer E (50 mM Hepes-NaOH pH 7.5, 150 mM NaCl); map without symmetry 6.6 Å, C2-symmetric map 6.8 Å; homology models of the domains docked into the density
[4] = substrate: NC(=O)C1=CN([C@@H]2O[C@H](COP(=O)(O)OP(=O)(O)OC[C@H]3O[C@@H](n4cnc5c(N)ncnc54)[C@H](O)[C@@H]3O)[C@@H](O)[C@H]2O)C=CC1; test: purified protein; format: biochemical, Trichomonas vaginalis; conditions: O2 of air-saturated buffer, 50 mM Hepes-NaOH pH 7.5, 150 mM NaCl, 37 °C
[5] = substrate: NC(=O)C1=CN([C@@H]2O[C@H](COP(=O)(O)OP(=O)(O)OC[C@H]3O[C@@H](n4cnc5c(N)ncnc54)[C@H](OP(=O)(O)O)[C@@H]3O)[C@@H](O)[C@H]2O)C=CC1; test: purified protein; format: biochemical, Trichomonas vaginalis; conditions: O2 of air-saturated buffer, 50 mM Hepes-NaOH pH 7.5, 150 mM NaCl, 37 °C
[6] = holoTvFDPF3 (full FAD and FMN), kcat per monomer
[7] = preparation with about 1% FMN, kcat per monomer
[8] = preparation with about 1% FMN, kcat per monomer, NAD(P)H tested 0.5-600 μM
[9] = preparation with 0.32 FAD and 0.009 FMN per monomer
[10] = preparation with 0.32 FAD and 0.009 FMN per monomer, kcat per monomer
[11] = preparation with 0.32 FAD and 0.009 FMN per monomer, NAD(P)H tested 0.5-600 μM
[12] = preparation with 0.32 FAD and 0.009 FMN per monomer, kcat per monomer, NAD(P)H tested 0.5-600 μM

Molecule `NC(=O)c1ccc[n+]([C@@H]2O[C@H](COP(=O)(O)OP(=O)(O)OC[C@H]3O[C@@H](n4cnc5c(N)ncnc54)[C@H](O)[C@@H]3O)[C@@H](O)[C@H]2O)c1` [NAD^+] has a Kd [1] of about 130 nM.

In the case of `Cc1cc2nc3c(=O)[nH]c(=O)nc-3n(C[C@H](O)[C@H](O)[C@H](O)COP(=O)(O)O)c2cc1C` [FMN], the “FMN per protein monomer” value [2] is reported as 0.92 ± 0.09 mol per mol monomer.

“class F flavodiiron protein 3 from Trichomonas vaginalis (TvFDPF3) (enzyme)” gave a stoichiometry N [3] of 2.

B1: TvFDPF3 (holoTvFDPF3) (Trichomonas vaginalis G3) (protein)
chain: T1 sequence (A2E972 1-871)
notes: full length, 871 residues, C-terminal His6 (pET30a, E. coli BL21 Star DE3), ~100 kDa on SDS-PAGE; FDP-core head-to-tail dimer; holo preparation with full FAD/FMN
Work on B1 yielded a Km [4, 6] of 56 ± 2 µM, a Vmax [4, 6] of 291 µmol/min/mg and a kcat [4, 6] of 466 ± 42 s⁻¹. The kcat/Km [4, 6] was 8.3e+06 ± 800000 M⁻¹ s⁻¹, the Km [5, 6] was 427 ± 160 µM and the Vmax [5, 6] was 11 µmol/min/mg. The kcat [5, 6] was 18 ± 6 s⁻¹ and the kcat/Km [5, 6] was 41000 ± 21000 M⁻¹ s⁻¹.

B2: TvFDPF1 (Trichomonas vaginalis G3) (protein)
chain: MLKIQQLTEDIYWLGALDPTLAVFDIIMETKYGTTYNAYMIKTPAGAVLVETVKECFFEEYIEKVKSVIGDINNIKYLITNHTEPDHSGSIKKIIEIIPGLTVIGSKTALTYLEDIVNIPFRGHSAEDLKALKFGGKTFEFISCPFLHWPDSMYTWLPEEQALFTCDSFGAHYSPKKSILMSELPPEEEDGYQEALLYYYTAIFGPFKDFVIKGTDKILDLDIKIICLGHGPVLDARVQETIDTYRKWSEPALPHPGIEVVMVYASAYGYTTEMAEEIKNGILDKIPDASVKMYNVNIQNYGGMKADIMNSIATADGVLLGTNTINGDAVPPIWDVALSMNPIVHGGKIVTAFGSYGWSGEGVDNIINRFDKIRCKVVEPIKIKFRMSKKEHKQVREFGRRFADCLESGEVPDRAVPGRVVGAKDWSELNPTGAIVLWRCVICGEIYAGVTPPLVCPACGVGQDLFELYEAEEVTCSSFENLKFVVVGSGAAAVSAIDAIRARNTVASITMLTREKIMPYYRPIIVDALNSEISPENYYLKNEDWYTENNITVKLGTTVKSIDTARKSLTLSDGSTMQYDRLILATGSRPFVPPIGHEGLTGVYVIRTSNDVELLKETCKTAKKAVVIGGGVLGLENASAIKDRGLSVTVVECMPRLMARQLDPEASEILQGFVRDYGVDLRMGQCVVIKGDGKKVTGVQVGDEFISADFVVVNAGVRAESEVAAAAGIECSRGITVNNKMETSAQDVYAAGDCAYMENINQGLWAPALAMGKVAGANAAGDSKTFHFSIEPVNMIAMGTDLFAVGIPPDSPKGYNVISQRDEKEGTAIKLYFKDNRLVYAAGFKCQKQSGFLLKGVRNGHTLQHVLAELF
notes: full length, 871 residues, C-terminal His6 (pET30a, E. coli BL21 Star DE3); 272 kDa by gel filtration
B2 showed a Km [4, 7] of 2.9 ± 0.8 µM, a Vmax [4, 7] of 4.9 µmol/min/mg and a kcat [4, 7] of 7.8 ± 1.9 s⁻¹. The kcat/Km [4, 7] was 2.6e+06 ± 900000 M⁻¹ s⁻¹, the Km [5, 8] was 1475 ± 486 µM and the Vmax [5, 8] was 4.9 µmol/min/mg. The kcat [5, 8] was 7.8 ± 3.3 s⁻¹ and the kcat/Km [5, 8] was 5200 ± 2800 M⁻¹ s⁻¹.

B3: TvFDPF2 (Trichomonas vaginalis G3) (protein)
chain: MLKIQQLTEDIYWLGVLDSNLAVFDIIMETKYGTTYNAYLIKTPEGAVLVETVKETFFDEYIEKVKSVIGDIHKIKYLITNHTEPDHSGSIKKMIELIPDLTVVGSKTALTYLEDIVNIPFKGHSAEDLKVLKFGGKSFEFISCPFLHWPDSMYTWVPEEKTLFTCDSFGAHYSPKKSILMSQLPPEEEEGYQDALLYYYTAIFGPFKEYVIKGTDKILNLDIKLVGLGHGPVLDARIKETIDTYRKWSAPLPTHEGKEVVMVYASAYGYTTEMAEEIKAGILAKIPDAKIKMFNVNIQNYGGLKGEIMNAIATADGVLLGTNTINGDAVPPVWDVALSMNPIVHGGKIVTAFGSYGWSGEGVDNIIARFDQIRCKVIDGCKIKFRMSKKEHGKVNEFGQQFGEALITGKVPERAVPGKVVGAKDWSELNPTGAVVLWRCVICGEIYAGVTPPLQCPACGVGQDLFELYEAEQVTHKSTEPLNYVIVGSGAAAVASIEAIRARNAVAKITMISREKVMPYYRPIIVDALNAEIAPDKYFLKNEEWYKENKIEIKLDTSVTAIDTKAKKVKLCRGDELAYDKLILATGSRPFIPPIGHEGLSGVIVIRTSADVDQLKAACQTAKKAVVIGGGVLGLENASAIKEKGVAVTVVECMPRLMARQLDTEASAVLLEEVKKFGVDVRLGMTVSIKGDGKHVTGVQVGEEFIPADFVVVNAGVRAESEVAAAAGIKCGRGIIVNNKMETNVPDVYAAGDCAFLDNMNQGLWAPALAMGKVAGANACGDNKTFAFAIEPVSMIAMGTDLFACGNPPESAQGYNVVSQKDDKEGSAIKLYFKDNRLVYAAGFRIQKISGSLLKGVREGRSLERIMAEIF
notes: full length, 871 residues, C-terminal His6 (pET30a, E. coli BL21 Star DE3); aggregation-prone; poor FAD and FMN occupancy
With B3 the kcat [4, 9] was 9.6 ± 0.3 s⁻¹, the kcat/Km [4, 9] was 530000 ± 60000 M⁻¹ s⁻¹ and the Km [4, 10] was 18 ± 2 µM. For the same molecule, the Vmax [4, 10] was 6.1 µmol/min/mg, the kcat [5, 11] was 1.7 ± 0.3 s⁻¹ and the kcat/Km [5, 11] was 1400 ± 300 M⁻¹ s⁻¹. It also gave a Km [5, 12] of 1171 ± 208 µM and a Vmax [5, 12] of 1.1 µmol/min/mg.
